From PMC3494873 (EMBO Molecular Medicine, 2012) come the findings set out here.

Read-outs that look alike come from different tables or passages of the source.

The labels stand for the following.
B2: Recombinant Fc-his-tag-E-cadherin (extracellular portion) (Fc fusion, UniProt P12830 155-709, looked up)
chain: DWVIPPISCPENEKGPFPKNLVQIKSNKDKEGKVFYSITGQGADTPPVGVFIIERETGWLKVTEPLDRERIATYTLFSHAVSSNGNAVEDPMEILITVTDQNDNKPEFTQEVFKGSVMEGALPGTSVMEVTATDADDDVNTYNAAIAYTILSQDPELPDKNMFTINRNTGVISVVTTGLDRESFPTYTLVVQAADLQGEGLSTTATAVITVTDTNDNPPIFNPTTYKGQVPENEANVVITTLKVTDADAPNTPAWEAVYTILNDDGGQFVVTTNPVNNDGILKTAKGLDFEAKQQYILHVAVTNVVPFEVSLTTSTATVTVDVLDVNEAPIFVPPEKRVEVSEDFGVGQEITSYTAQEPDTFMEQKITYRIWRDTANWLEINPDTGAISTRAELDREDFEHVKNSTYTALIIATDNGSPVATGTGTLLLILSDVNDNAPIPEPRTIFFCERNPKPQVINIIDADLPPNTSPFTAELTHGASANWTIQYNDPTQESIILKPKMALEVGDYKINLKLMDNQNKDQVTTLEVSVCDCEGAAGVCRKAQPVEAGLQIPA

Assay in all cases: SPR
Background: In SPR one partner is held on a chip, and binding of the other changes the refractive index at the surface.

The target of assay [1] is B2.
Assay [2] has as its target T1, Recombinant his-tag-α6β4 integrin (extracellular portions) (UniProt P23229-2 24-1011; P16144 28-710).
In assay [3] the target is T1, Recombinant his-tag-α6β4 integrin …. This is another data set of the same source.

B1: Recombinant angiopoietin-like 6 (ligand, UniProt Q8NI99 21-470, looked up)
chain: RAGAPRCTYTFVLPPQKFTGAVCWSGPASTRATPEAANASELAALRMRVGRHEELLRELQRLAAADGAVAGEVRALRKESRGLSARLGQLRAQLQHEAGPGAGPGADLGAEPAAALALLGERVLNASAEAQRAAARFHQLDVKFRELAQLVTQQSSLIARLERLCPGGAGGQQQVLPPPPLVPVVPVRLVGSTSDTSRMLDPAPEPQRDQTQRQQEPMASPMPAGHPAVPTKPVGPWQDCAEARQAGHEQSGVYELRVGRHVVSVWCEQQLEGGGWTVIQRRQDGSVNFFTTWQHYKAGFGRPDGEYWLGLEPVYQLTSRGDHELLVLLEDWGGRGARAHYDGFSLEPESDHYRLRLGQYHGDAGDSLSWHNDKPFSTVDRDRDSYSGNCALYQRGGWWYHACAHSNLNGVWHHGGHYRSRYQDGVYWAEFRGGAYSLRKAAMLIRPLKL
As to B1, the Kd is 29 nM in assay [1] and 2.03 nM in assay [2]. Regarding B2, in assay [3], the Kd lay within 5.3 to 16.8 nM.

One may read the Kd as the equilibrium constant for the complex coming apart.
